Numbering of substitutions follows the chain as printed.

The record followed here is patent publication US20160244525A1 (Genentech, published 2016).

The target in one experiment is T1, FGFR2-IIIb (D2D3) (human).
T1 construct: also called human FGFR2-IIIb ECD (residue 140-369)
T1 chain: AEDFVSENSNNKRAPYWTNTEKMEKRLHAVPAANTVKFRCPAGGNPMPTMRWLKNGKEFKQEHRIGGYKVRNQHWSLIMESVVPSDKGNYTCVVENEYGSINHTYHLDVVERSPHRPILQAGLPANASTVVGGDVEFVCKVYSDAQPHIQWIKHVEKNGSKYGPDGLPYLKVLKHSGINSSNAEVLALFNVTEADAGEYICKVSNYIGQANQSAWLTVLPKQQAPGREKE
The experiment is described as follows: SPR (Biacore).

Experiment [1] addresses T2, FGFR3-IIIc (human, UniProt P22607 23-375, limits assumed).
T2 construct: also called human FGFR3-IIIc
T2 sequence: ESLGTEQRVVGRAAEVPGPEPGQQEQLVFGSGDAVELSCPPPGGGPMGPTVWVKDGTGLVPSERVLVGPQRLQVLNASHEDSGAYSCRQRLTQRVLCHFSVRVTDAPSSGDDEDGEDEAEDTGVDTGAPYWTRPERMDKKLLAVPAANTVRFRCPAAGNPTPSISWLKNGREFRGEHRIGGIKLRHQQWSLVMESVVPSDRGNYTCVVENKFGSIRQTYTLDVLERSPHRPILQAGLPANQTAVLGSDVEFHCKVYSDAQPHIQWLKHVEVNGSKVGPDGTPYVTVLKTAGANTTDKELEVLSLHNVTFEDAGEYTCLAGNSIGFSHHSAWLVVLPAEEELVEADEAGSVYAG
Description: SPR (Biacore T100), IgG captured by anti-human Fc, FGFR flowed. On the technique in general: SPR reads the build-up and loss of mass on a sensor chip optically.
Description: (§1) A saturated amount of anti-human Fc monoclonal antibody was immobilized onto a CM5 biosensor chip by following the product instructions. […] FGFR antigens of various concentrations were injected at a flow rate 30 μL/min. After each binding cycle, flow cells were regenerated using 3M MgCl₂. Kinetic analyses were performed using the T100 evaluation software to obtain the kinetic and affinity constants.

Experiment [2] has as its target T2, FGFR3-IIIc. The experiment is described as follows: SPR.
Description: as §1
(§2) 1.3 variants were determined by capturing FGFR4-Fc and flowing the antibody Fab fragments (Table 12).
In a further experiment the target is T3, FGFR1-IIIb (human, UniProt P11362-19 22-376, limits assumed).
T3 construct: Soluble FGFR antigen in SPR
T3 sequence (looked up): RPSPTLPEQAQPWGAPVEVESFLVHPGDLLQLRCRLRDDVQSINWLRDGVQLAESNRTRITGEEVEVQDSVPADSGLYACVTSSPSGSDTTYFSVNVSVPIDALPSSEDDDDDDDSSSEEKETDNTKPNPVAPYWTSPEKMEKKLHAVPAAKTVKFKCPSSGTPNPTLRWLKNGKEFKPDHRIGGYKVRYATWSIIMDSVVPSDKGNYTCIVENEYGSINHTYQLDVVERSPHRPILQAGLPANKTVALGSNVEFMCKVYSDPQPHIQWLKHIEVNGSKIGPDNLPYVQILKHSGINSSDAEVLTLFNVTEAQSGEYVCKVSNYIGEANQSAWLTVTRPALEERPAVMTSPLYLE
The experiment is described as follows: SPR.

Experiment [3] addresses T4, FGFR2-IIIc (human, UniProt P21802 22-377).
T4 construct: also called human FGFR2-IIIc; FGFR2-IIIc-His
Description: blocking ELISA: FGFR2-IIIc-Fc captured on an anti-human Fc plate, antibody titrated, FGF-1 (with heparin) is the ligand, bound FGF-1 read as OD450. For orientation: An ELISA detects its analyte on a solid surface through an enzyme-linked reagent.
Description: (§3) The plate was washed 5 times before being added with the antibody and FGF ligand mixtures, which was prepared as 49 μL 100 ng/mL FGF ligand, 1 μL 25 mg/mL Heparin (Sigma-Aldrich) and 50 μL antibody dilutions. After shaking at RT for 2 h, the plate was washed 5 times. Bound ligand was detected by subsequent incubations at RT with 0.5 μg/mL biotinylated anti-FGF antibodies (R&D Biosystems) for 0.5 h, 1:2,500-diluted Streptavidin-HRP (Invitrogen) for 0.5 h and the TMB substrate until enough color development.

The target in a further experiment is T5, FGFR4 (human, UniProt P22455 22-369, limits assumed).
T5 construct: also called human FGFR4; FGFR4-His
T5 sequence (looked up): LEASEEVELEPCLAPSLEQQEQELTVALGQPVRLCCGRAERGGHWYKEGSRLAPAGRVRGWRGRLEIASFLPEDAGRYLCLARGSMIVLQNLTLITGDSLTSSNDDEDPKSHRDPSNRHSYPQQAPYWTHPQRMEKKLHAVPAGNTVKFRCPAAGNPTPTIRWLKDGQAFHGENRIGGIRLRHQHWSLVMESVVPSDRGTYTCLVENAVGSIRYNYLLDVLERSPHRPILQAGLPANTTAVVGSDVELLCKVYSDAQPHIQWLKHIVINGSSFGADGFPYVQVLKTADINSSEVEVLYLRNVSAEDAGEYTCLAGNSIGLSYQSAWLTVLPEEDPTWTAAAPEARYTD
The experiment is described as follows: blocking ELISA: FGFR4-Fc captured on an anti-human Fc plate, antibody titrated, FGF-19 (with heparin) is the ligand, bound FGF-19 read as OD450.

Experiment [4] has as its target T2, FGFR3-IIIc. The experiment is described as follows: blocking ELISA: FGFR3-IIIc-Fc captured on an anti-human Fc plate, antibody titrated, FGF-1 (with heparin) is the blocked ligand, bound FGF-1 read as OD450.
Description: as §3
A further experiment deals with T6, FGFR4-Fc (human, UniProt P22455 22-369).
T6 sequence (looked up): T5 sequence (looked up)
Description: SPR, FGFR4-Fc captured, Fab flowed; FGFR4-Fc captured, Fab flowed.

In experiment [5] the target is T4, FGFR2-IIIc. The experiment is described as follows: SPR (Biacore T100), IgG captured by anti-human Fc, FGFR flowed.
Description: as §1
Experiment [6] has as its target T2, FGFR3-IIIc. The experiment is described as follows: surface plasmon resonance (Biacore).
Experiment [7] addresses T4, FGFR2-IIIc. The experiment is described as follows: SPR.
Description: as §1, §2
Experiment [8] addresses T4, FGFR2-IIIc. The experiment is described as follows: blocking ELISA: FGFR2-IIIc-Fc captured on an anti-human Fc plate, antibody titrated, FGF-1 (with heparin) is the blocked ligand, bound FGF-1 read as OD450.
Description: as §3
The target of the next experiment is T7, FGFR4-6xHis (human, UniProt P22455 22-369, limits assumed).
T7 sequence: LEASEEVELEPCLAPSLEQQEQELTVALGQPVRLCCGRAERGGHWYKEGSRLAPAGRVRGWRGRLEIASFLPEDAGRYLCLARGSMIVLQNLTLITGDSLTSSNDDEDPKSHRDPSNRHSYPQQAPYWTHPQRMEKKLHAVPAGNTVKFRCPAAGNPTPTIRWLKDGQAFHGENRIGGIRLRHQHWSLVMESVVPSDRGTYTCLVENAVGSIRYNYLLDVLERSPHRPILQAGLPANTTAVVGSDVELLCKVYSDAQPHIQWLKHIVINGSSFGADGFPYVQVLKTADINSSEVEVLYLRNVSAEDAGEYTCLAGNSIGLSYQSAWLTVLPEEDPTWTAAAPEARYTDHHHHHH
Description: SPR, IgG captured, FGFR4-6xHis flowed.

T4 sequence (P21802 22-377 limits assumed): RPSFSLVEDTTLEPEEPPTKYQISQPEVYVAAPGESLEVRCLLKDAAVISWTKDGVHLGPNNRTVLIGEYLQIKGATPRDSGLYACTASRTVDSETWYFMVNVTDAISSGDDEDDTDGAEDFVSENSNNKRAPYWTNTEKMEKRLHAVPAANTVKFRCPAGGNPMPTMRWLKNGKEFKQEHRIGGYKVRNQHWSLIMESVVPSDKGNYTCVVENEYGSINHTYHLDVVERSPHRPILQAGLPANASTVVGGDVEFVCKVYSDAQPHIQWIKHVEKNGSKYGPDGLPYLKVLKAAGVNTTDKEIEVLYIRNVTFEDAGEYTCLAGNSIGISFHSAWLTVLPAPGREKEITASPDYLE
Description for FGFR1-IIIb: as §1, §2
Description for FGFR4-6xHis: as §1, §2

B1: R3Mab (antibody, human IgG1, kappa, V domains shown)
VH: EVQLVESGGGLVQPGGSLRLSCAASGFTFTSTGISWVRQAPGKGLEWVGRIYPTNGSTNYADSVKGRFTISADTSKNTAYLQMNSLRAEDTAVYYCARTYGIYDLYVDYTEYVMDYWGQGTLVTVSS
VL: DIQMTQSPSSLSASVGDRVTITCRASQDVDTSLAWYKQKPGKAPKLLIYSASFLYSGVPSRFSGSGSGTDFTLTISSLQPEDFATYYCQQSTGHPQTFGQGTKVEIKR
notes: IgG in SPR; also called parental anti-FGFR3 antibody
For B1, the binding result was “no binding (tested: 200 nM)” with FGFR2-IIIb (D2D3), “no binding” with FGFR1-IIIb, “no binding (tested: 128 nM)” with FGFR2-IIIc [3] and “no binding (tested: 500 nM)” in the experiment with FGFR4. Besides, the Kd in the experiment with FGFR3-IIIc [1] and in the experiment with FGFR3-IIIc [2] was 0.61 nM each time. For the same molecule, the “IC50 (read off the curve)” value with FGFR3-IIIc [4] is 2 to 3 nM.

B2: Fab fragment of Mab 2B.1.3 (Fab, V domains shown)
VH: B1 VH with I51T, Y52H, P53L, T54G, N55D
VL: B1 VL
notes: Fab; also called 2B.1.3 Fab; Fab 2B.1.3
Regarding B2, the Kd (commonly the equilibrium constant for the complex coming apart) with FGFR4-Fc is 32 nM.

B3: 2B.1.3 (antibody, human IgG1, kappa, V domains shown)
VH: B1 VH with I51T, Y52H, P53L, T54G, N55D
VL: B1 VL
notes: Full IgG1/kappa chains; also called Mab 2B.1.3
In the case of B3, the Kd with FGFR2-IIIb (D2D3) came to 0.71 nM; with FGFR2-IIIc [5], 2 nM; with FGFR3-IIIc [1], 0.07 nM; with FGFR3-IIIc [6], 0.0834 nM; with FGFR2-IIIc [7] it was 2 nM; with FGFR3-IIIc [2] it was 0.07 nM. Further, in the experiment with FGFR1-IIIb, the binding result was “no binding”. In addition, the “IC50 (read off the curve)” value with FGFR2-IIIc [8] is about 5 nM; with FGFR3-IIIc [4], 2 to 3 nM.

B4: 2B.1.1 (antibody, human IgG1, kappa, V domains shown)
VH: B1 VH with I51Y, Y52W, P53A, T54W, N55D
VL: B1 VL
notes: Full IgG1/kappa chains
As for B4, the Kd with FGFR3-IIIc [6] was found to be 0.0663 nM; with FGFR2-IIIc [7], 2.8 nM; with FGFR4-6xHis, 2.8 nM. The binding result with FGFR1-IIIb is “no binding”.
